Assay results from patent US20040038369A1, “Airway-specific trypsin-like enzymes and method of using the same” (priority 2000, published 2004).

B1: Cattle: cattle AST, SEQ ID NO: 32 and 33 (protein, listed as Bos taurus)
chain: MYRPARVTSASRSLNPYLVFFVVVAVVVILAVIIGLLVYFLAFDQKSYFYQSSIQILGKQYSDELSSPATEKYRTLSGRIESMITKTFKESDLKNEFIKAHVVKLRQSGNNVIADIIMKFKFTRRINEASMKSRIESILRQMPNNSEDLNMNPTQVISITGQDTIQLFTRECGVRSDLITLSEERIIGGSKAEKGDWPWQVSLQWSSSHRCGGALISNRWILSAAHCFRSHSDPRQWIATFGTSTISPQLRVGVRNILIHDNYKPETHENDIALVQLDREVTFNRYIHTVCLPEANQAISAGSTAYVTGWGSQSYSGSTVSDLNQGRVNIISNTVCNTPAGYNGAVLSGMLCAGLPEGGVDACQGDSGGPLVQEDSRQHWFIVGIVSWGYQCGLPDKPGVYTRVTAYRDWITQQTGI
B2: Rabbit: rabbit AST, SEQ ID NO: 34 and 35 (protein, listed as Oryctolagus cuniculus)
chain: MYRPARGSSTSRFLNPYVICFIVVAVVVILAVIVALLIHFLAFDKKSCFFHSSFQIRNVQYSDQLNSPATQEYRLLSERIESMISQTLQGSNLRNQFIRAHVVKLRQDSNSVIADVVMKFRVSRNNNGDAMKRRVQDVLQQMLNNSGSLEINPSTTVTEITGQDTETIFTQQCGARPDLITLSEERIIGGTQAEEGDWPWQVSLQPNNAHHCGGILISNTWILTAAHCFRSYSDPRQWTATFGISTAVSRQRMRIRTILVHNNYRSATHENDIAAVQLEGAITFTRNIHSVCLPEATQNITPGSSAYVTGWGSLEYGGNTVTYLQQGRVRIISNEVCNAPASYNGAVLPTMVCAGLSQGGVDACQGDSGGPLVQEDSRRLWFVVGIVSWGYQCGLPDKPGVYTRVTAYRDWIREQTGI
B3: Monkey: monkey AST, SEQ ID NO: 28 and 29, expressed in 293 EBNA cells (protein, listed as Macaca fascicularis)
chain: MYRPARVPSTSRFLNPYVVCFIVVAGVVILAVTIALLVYFLAFDQKSYFYRSSFQLLNVEYNSQLNSPATQEYRTLSGRIESLITRTFKESNLRNQFMRAHVVKLSQDGSGVRADVVMKFRFTRNNNGASMKSRIESVLQQMLNNSGNLEINSSTEITSLTDQAAANWLINECGAGPDLITLSEQRIIGGTEAEEGSWPWQVSLRVNNAHHCGGSLISNTWILTAAHCFRSNSNPREWIATFGISTTNPRLRMRVRSILIHNNYISATHENDIALVRLENSVTFTRDIHSVCLPAATQNIPLGSTAYVTGWGAQEYAGSTVSELRQAQVRIISNDVCNAPYSYNGGILPGMLCAGVPQGGVDACQGDSGGPLVQEDSRRLWFLVGIVSWGDQCGLPDRPGVYTRVTTYRDWIRQRTGI
B4: Pig: pig AST, SEQ ID NO: 26 and 27 (protein, listed as Sus scrofa)
chain: MYRPATVRSASRSLNPYTVCFIVVAVVVILAVTIALLVHFLAFDQKAYFYHSRFQILNVEYSDELNSPATQKYRSLSGRIESMITRTFKESNLRNQFVRAHVVKLRQSGSGVIADIVMKFKFTRYNNGASMKSRIESVLRQMLNNTGNLVMNPSTELTPITDQDTVNIFTQGCGARPDLITLSEERIIGGTKAEEGDWPWQVSLQRNNLHHCGGVLISNRWILTAAHCFRSYSDPRQWTVTFGISTIFPKDRIGVRNILIHNNYNPETHENDIALVQLNREVAFTKNIHSVCLPEATQTIPPGSTAYVTGWGSQRYSGNTVPDLEQVRVNIISNDVCNSPAGYNGDVLPGMLCAGLPEGGADACQGDSGGPLQQEDSRRLWFLVGIVSWGYQCGLPDKPGVYTRVTAYRDWIAQQTGI
B5: Dog: dog AST, SEQ ID NO: 30 and 31 (protein, listed as Canis familiaris)
chain: MYRPARVPSGSRFLNPYVVCFVVVAGVVILAVTIALLIHFLAFDQKSYFYHSSFQILNVQYSNQLNSPGTQEYRTLSGRIESLITKTFRESNLRNQFIRAHVVKLRQEGNGVIADVVMKFKFTRNNNGALMKSRIKSVLHQMLNNSGNLEISPSTEITSITDQDTVNIFTEGCGARPDLITLSEERILGGNKAEEGDWPWQVSLQKNNVHHCGGVLISSMWILSAAHCFRSQSNPRQWTAIFGASIAFPKQKRRVRTILIHNNYNPATHENDIAAIQLEGGINFTKNIHRVCLPEATQNIPPGSSAYVTGWGSQEYGGNTVSDLQQARVRIISNDVCNAPTSYNGAVRPGMLCAGLPQGGVDACRGDSGGPLVQEDSRRLWFLVGIVSWGDRCGLPDKPGVYTRVTAYRDWITEKTGV

Test: Enzymatic activity of mammalian ASTs transiently expressed in 293 EBNA cells
Type: biochemical
Details: 293 EBNA cell lysate, three days after transfection
Method: A forward primer and a reverse primer were prepared on gene sequences encoding the N-terminal and C-terminal of each mammalian AST, and a cDNA encoding the full-length AST was prepared by a PCR amplification using the forward primer, the reverse primer, Pyrobest DNA polymerase (produced by Takara Shuzo Co.), and an airway cDNA as a template. On the other hand, a product obtained by cleaving pcDNA3 (produced by Invitrogen Corp.) with restriction enzymes NruI and KpnI, and the promoter domain of Elongation Factor-1a (EF-1 a) from human genome were amplified by a PCR using a forward primer: […] and a reverse primer: […]. The amplified fragment was cleaved with restriction enzymes NruI and KpnI, and then inserted into the above-described plasmid vector to construct the pEF9 expression vector having the promoter of the human EF-1α. The PCR-amplified ATS fragment was inserted into a multi-cloning site in the downstream of the human EF-1α promoter of the above-described pEF9 expression vector to prepare each animal AST expression plasmid. The base sequences were identified with an automatic sequencer.
Human fetal kidney-originated 293 EBNA cells (Invitrogen Corp.) were cultured in a 10 cm schale, and the about 5.8×10^6 cells were transfected with 28 μg of each expression plasmid prepared in (1) in 56 μL of LipofectAMINE 2000 (produced by GibcoBRL Corp.) according to an appended manual. Three days later, the cells were lysed and recovered in 5 mL of M-PER (produced by PIERCE Corp.) and then mixed with 5 mL of a buffer solution (50 mM Tris-HCl, 0.01% BSA, pH=8.6) for AST activity assay to give the cell lysate. The cell lysate was further diluted with the buffer solution for the AST activity assay ten times, and then supplied for the activity assay. 40 μL of the above-described assay sample was mixed with 20 μL of a synthetic substrate solution (a solution obtained by diluting a 10 mM Boc-Phe-Ser-Arg-MCA DMSO (dimethyl sulfoxide) solution with the buffer solution for the AST activity assay 50 times), and the increase of the fluorescence intensity per minute was assayed (fluorescence wavelength: 460 nm, excitation wavelength: 380 nm) to determine the enzymatic activity.

Going from B1 to B2, the “Cell lysate Fluorescence intensity ratio (Human:100)” value rises from 16 to 30.

Going from B3 to B4, the “Cell lysate Fluorescence intensity ratio (Human:100)” value falls from 250 to 92.

In the case of B5, the “Cell lysate Fluorescence intensity ratio (Human:100)” value is reported as 40.

Same assay, conditions: 293 EBNA, Sup

With B3 the “Sup Fluorescence intensity ratio (Human:100)” value was 150.
